Reference: the supplement of paper PMC9233669
Variants at the floor of the assay were thinned out.

What was measured:
[1] = system: biotinyl-Leu-oxazolone; test: self-aminoacylation, catalytic enhancement (BLO) (fold over background); higher = more active; k-Seq, kA / k0A0; sequences stand for … in GGGAAUGGAUCCACAUCUACGAAUUC…UUCACUGCAGACUUGACGAAGCUG
Summary of the method: (§1)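 Working in 50 μL HEPES/NaCl/KCl/MgCl2/CaCl2 buffer with 5% acetonitrile at pH 6.9–7.0, mutagenized RNA pools (0.43 μM; 21-nt variable region) were reacted with 2–1250 μM of each biotinyl-aminoacyl-oxazolone for 90 minutes at room temperature. Streptavidin capture followed, with quantification by triplicate qPCR and Illumina sequencing. Catalytic enhancement is reported as median kA over the uncatalyzed rate, the low-activity peak of a bimodal Gaussian fit to the data.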

[2] = system: biotinyl-Ile-oxazolone; test: self-aminoacylation, catalytic enhancement (BIO) (fold over background); higher = more active; k-Seq, kA / k0A0; sequences stand for … in GGGAAUGGAUCCACAUCUACGAAUUC…UUCACUGCAGACUUGACGAAGCUG
Summary of the method: as §1

[3] = system: biotinyl-Met-oxazolone; test: self-aminoacylation, catalytic enhancement (BMO) (fold over background); higher = more active; k-Seq, kA / k0A0; sequences stand for … in GGGAAUGGAUCCACAUCUACGAAUUC…UUCACUGCAGACUUGACGAAGCUG
Summary of the method: as §1

[4] = system: biotinyl-Phe-oxazolone; test: self-aminoacylation, catalytic enhancement (BFO) (fold over background); higher = more active; k-Seq, kA / k0A0; sequences stand for … in GGGAAUGGAUCCACAUCUACGAAUUC…UUCACUGCAGACUUGACGAAGCUG
Summary of the method: as §1

[5] = system: biotinyl-Trp-oxazolone; test: self-aminoacylation, catalytic enhancement (BWO) (fold over background); higher = more active; k-Seq, kA / k0A0; sequences stand for … in GGGAAUGGAUCCACAUCUACGAAUUC…UUCACUGCAGACUUGACGAAGCUG
Summary of the method: as §1

[6] = system: biotinyl-Val-oxazolone; test: self-aminoacylation, catalytic enhancement (BVO) (fold over background); higher = more active; k-Seq, kA / k0A0; sequences stand for … in GGGAAUGGAUCCACAUCUACGAAUUC…UUCACUGCAGACUUGACGAAGCUG
Summary of the method: as §1

Sequence | self-aminoacylation [1] | self-aminoacylation [2] | self-aminoacylation [3] | self-aminoacylation [4] | self-aminoacylation [5] | self-aminoacylation [6]
CAUCACCUAGGUCAUCGGGUG [Fam2.2 aminoacylation ribozyme variant] | 6.23 | 3.15 | 6.18 | 21 | 5.76 | 4.05
AUGUUUGCUAACAGUCGCAAG [Fam3.1 aminoacylation ribozyme variant] | 1.49 | 1.59 | 1.61 | 5.92 | 3.34 | 1.43
CCACACUUCAGGCAAUCGGUA [Fam1B.1 aminoacylation ribozyme variant] | 1.23 | 1.24 | 1.43 | 1.97 | 1.04 | 1.33
CCACACAUCAAGCAACCGGUC [Fam1B.1 aminoacylation ribozyme variant] | 0.817 | 1.4 | 1.21 | 1.29 | 1.14 | 1.13
CUACUUCAUACAAUCGGUUUG [Fam1A.1 aminoacylation ribozyme variant] | 0.602 | 0.64 | 0.538 | 0.619 | 0.425 | 0.541
AAUCAUCUAGGUCAUCGGGUG [Fam2.2 aminoacylation ribozyme variant] | 5.48 | 4.54 | 5.64 | 41.3 | 7.01 | 4.6
AGUACCCUGGUCAUAGAGUGA [Fam2.1 aminoacylation ribozyme variant] | 4.1 | 2.33 | 4.15 | 15.4 | 4.67 | 2.48
AUUCAGCUAGGUCACCGGGUG [Fam2.2 aminoacylation ribozyme variant] | 6.32 | 4.69 | 7.17 | 51.6 | 7.07 | 4.32
AUUACCCUGGUCGUCGGGUGA [Fam2.1 aminoacylation ribozyme variant] | 4.72 | 2.86 | 3.87 | 26.3 | 5.14 | 2.98
AUUCACCAAGGGCAUCGGGUG [Fam2.2 aminoacylation ribozyme variant] | 6.01 | 4.37 | 5.2 | 35.1 | 4.74 | 5.01
CCACUUCGAACAAUCGGUCUG [Fam1A.1 aminoacylation ribozyme variant] | 1.41 | 1.15 | 1.77 | 1.26 | 1.32 | 1.24
AUUCACCUAGGUUAUCGGCUG [Fam2.2 aminoacylation ribozyme variant] | 1.79 | 1.45 | 1.73 | 4.24 | 1.44 | 1.57
AUUCACCUAGGGCAACGGGUG [Fam2.2 aminoacylation ribozyme variant] | 4.08 | 2.59 | 2.81 | 22.8 | 2.92 | 2.5
AUUCCCCUGGUCUUCGAGUGA [Fam2.1 aminoacylation ribozyme variant] | 9.91 | 5.69 | 9.43 | 64.6 | 11.8 | 5.87
CUACUUCAUACAAUCGGGCUG [Fam1A.1 aminoacylation ribozyme variant] | 0.877 | 1.11 | 0.744 | 0.688 | 0.764 | 0.994
AUUCACUUAGGUCAUCGAGUG [Fam2.2 aminoacylation ribozyme variant] | 2.75 | 1.68 | 2.42 | 4.43 | 1.99 | 1.64
CUACUUCAAAAAAGCGGUCUG [Fam1A.1 aminoacylation ribozyme variant] | 0.966 | 0.999 | 1.02 | 0.451 | 0.633 | 0.801
CCACACUUAAAGCCAUCGGUC [Fam1B.1 aminoacylation ribozyme variant] | 0.913 | 0.992 | 0.801 | 0.617 | 1.06 | 1.11
AUUGACCUAGGUCAUCGUGUG [Fam2.2 aminoacylation ribozyme variant] | 1.36 | 1.36 | 1.04 | 4.26 | 1.35 | 1.18
CUGCUUCAAACCAUCGGUCUG [Fam1A.1 aminoacylation ribozyme variant] | 0.631 | 0.708 | 0.677 | 0.756 | 0.706 | 0.887
AUUACCCAGGUCAUCGAGUUA [Fam2.1 aminoacylation ribozyme variant] | 0.915 | 1.01 | 0.882 | 1.39 | 1.32 | 1
UUUACCCUGGUCAUCGAGUUA [Fam2.1 aminoacylation ribozyme variant] | 6.2 | 3.03 | 7.29 | 16.7 | 6.24 | 3.5
CUACUUCAAACUAUCGGUUUG [Fam1A.1 aminoacylation ribozyme variant] | 0.829 | 0.944 | 0.748 | 0.88 | 0.697 | 0.961
CCACACUUCACGCUAUCGGUC [Fam1B.1 aminoacylation ribozyme variant] | 0.971 | 1.13 | 1.03 | 1.09 | 0.951 | 1.17
CUACUUCAAGCGAUCGGUCUG [Fam1A.1 aminoacylation ribozyme variant] | 0.799 | 0.77 | 0.769 | 0.917 | 0.654 | 0.781
CCACACUCCAAGCAAUCGGUA [Fam1B.1 aminoacylation ribozyme variant] | 1.27 | 1.15 | 0.699 | 0.936 | 1.25 | 1.34
